Assay results taken from article PMC11927390 (Cancer Research Communications, 2025).

T1: human ULBP6-02 extracellular domain (residues R26-G218) (human, UniProt Q5VY80 26-218, glycosylation of residues N68 and N82 (in the crystal structure))
T1 construct: the construct of the SPR with NKG2D and of the cell assays is only called ULBP6-02 or recombinant ULBP6-02; also called sULBP6-02; sULBP6; source: recombinant, 23andMe, Inc; mammalian expression system
T1 sequence (looked up): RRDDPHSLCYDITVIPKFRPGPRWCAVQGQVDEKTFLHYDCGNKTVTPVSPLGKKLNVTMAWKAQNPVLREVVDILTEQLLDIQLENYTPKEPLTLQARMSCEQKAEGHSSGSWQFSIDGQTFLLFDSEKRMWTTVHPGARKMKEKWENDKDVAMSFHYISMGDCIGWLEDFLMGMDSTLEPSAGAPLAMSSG


Assays:
Details in all cases: both partners purified
human ULBP2 = human ULBP2 (Homo sapiens (Human)., UniProt Q9BZM5); assay: SPR; 23ME-01473 and human ULBPs, as described for NKG2D (Biacore, 37°C, Protein A chip, HBS-P, ligands injected); one-to-one Langmuir model, KD = kd/ka
human ULBP1 = human ULBP1 (Homo sapiens (Human)., UniProt Q9BZM6); assay: as above
human ULBP3 = human ULBP3 (Homo sapiens (Human)., UniProt Q9BZM4); assay: as above
[1] = biological target: human ULBP6 (allelic isoform not stated) (Homo sapiens, ULBP6-02 allele (R26, …, UniProt Q5VY80)); assay: as above
human ULBP5 = human ULBP5 (Homo sapiens (Human)., UniProt Q6H3X3); assay: as above
biotinylated ULBP5 = biotinylated ULBP5 (human, UniProt Q6H3X3, biotin); assay: ELISA; blocking assay: plates coated with Fc-tagged NKG2D; biotinylated ULBP5 (1.55 nmol/L) or ULBP6-02 (0.15 nmol/L) at its EC80 precomplexed with 23ME-01473 and transferred to the plates; IC50 from dose-response fit
biotinylated ULBP6-02 = biotinylated ULBP6-02 (human, UniProt Q5VY80, biotin); assay: as above
[2] = biological target: T1, human ULBP6-02 extracellular domain …; assay: SPR; Biacore 8K or 8K+, 37°C; Fc-tagged human NKG2D (0.5 μg/mL) captured on Series S Sensor Protein A chip to about 25 RU; threefold serial dilutions of NKG2DLs injected at 30 μL/minute in HBS-P (0.01 mol/L HEPES pH 7.4, 0.15 mol/L NaCl, 0.005% P20); KD from steady-state fit

human ULBP2, sequence (Q9BZM5 26-217): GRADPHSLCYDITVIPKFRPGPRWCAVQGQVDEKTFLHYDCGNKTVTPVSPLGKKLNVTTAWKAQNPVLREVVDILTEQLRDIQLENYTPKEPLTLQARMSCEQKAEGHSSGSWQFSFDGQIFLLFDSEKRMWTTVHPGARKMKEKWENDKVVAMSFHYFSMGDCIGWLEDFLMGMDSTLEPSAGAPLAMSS
human ULBP1, sequence (Q9BZM6 26-216): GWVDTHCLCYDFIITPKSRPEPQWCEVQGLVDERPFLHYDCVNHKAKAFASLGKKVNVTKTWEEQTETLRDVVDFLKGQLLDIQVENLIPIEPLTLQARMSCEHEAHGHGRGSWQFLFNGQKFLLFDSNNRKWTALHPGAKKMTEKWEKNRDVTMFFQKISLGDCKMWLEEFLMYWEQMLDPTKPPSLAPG
human ULBP3, sequence (Q9BZM4 30-217): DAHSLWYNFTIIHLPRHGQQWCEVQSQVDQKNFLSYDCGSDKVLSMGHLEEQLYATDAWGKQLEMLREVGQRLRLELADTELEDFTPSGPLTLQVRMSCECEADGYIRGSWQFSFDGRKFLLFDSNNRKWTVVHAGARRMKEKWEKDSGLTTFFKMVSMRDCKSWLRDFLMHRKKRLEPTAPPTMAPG
biotinylated ULBP5, sequence (Q6H3X3 26-218): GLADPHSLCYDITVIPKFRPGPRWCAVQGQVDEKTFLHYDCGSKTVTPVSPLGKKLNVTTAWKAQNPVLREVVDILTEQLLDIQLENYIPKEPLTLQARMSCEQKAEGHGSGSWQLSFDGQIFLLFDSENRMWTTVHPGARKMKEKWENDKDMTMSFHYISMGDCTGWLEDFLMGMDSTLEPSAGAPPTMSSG
human ULBP5, sequence (Q6H3X3 26-218): as above

Kd (human ULBP2) [nM]	binding result (human ULBP1)	binding result (human ULBP3)	Kd [1] [nM]	Kd (human ULBP5) [nM]	IC50 (biotinylated ULBP5) [nM]	IC50 (biotinylated ULBP6-02) [nM]	binding result [2]	Binder
0.23	no binding	no binding	0.053	1.92	0.31	0.04	–	23ME-01473, humanized Fc effector-enhanced (afucosylated) anti-ULBP6/2/5 antibody (antibody, V domains shown, variable domain as in the heavy chain of the Fab m2; human IgG1 heavy constant region; as the light chain of m2; Humanized by CDR grafting from a mouse hybridoma clone; also called Fc-enhanced anti-ULBP6/2/5 antibody; source: CHO FUT8-KO, transfected, purified (Protein A, SEC Superdex 200)) VH: EVQLVESGGGLVQPGGSLRLSCAASGFTFSTYGFHWVRQAPGKGLEWVAYISSNSGTIDYADTVKGRFTISRDNAKNSLYLQMNSLRAEDTAVYYCARQGYGFDNWGQGTTVTVSS VL: DIQLTQSPSSLSASVGDRVTITCSASSRVSYMNWYQQKPGKSPKIWVYGISNLASGVPSRFSGSGSGTDFTFTISSLQPEDIATYYCQQRSSHPLTFGGGTKVEIK
–	–	–	–	–	–	–	binds	Fc-tagged human NKG2D (Fc fusion, UniProt P26718 73-216, looked up, NK group 2D receptor (NKG2D), human; also called Fc-tagged NKG2D) IWSAVFLNSLFNQEVQIPLTESYCGPCPKNWICYKNNCYQFFDESKNWYESQASCMSQNASLLKVYSKEDQDLLKLVKSYHWMGLVHIPTNGSWQWEDGSILSPNLLTIIEMQKGDCALYASSFKGYIENCSTPNTYICMQRTV
